The target of the data set is CL11 (ribosomal protein L11 C-terminal domain, wild type) (Bacillus stearothermophilus, UniProt P56210 59-133). The data set is described as follows: SPR. (Surface plasmon resonance follows binding to a sensor surface in real time, without labels.)

As a reminder, the Kd is the free concentration of one partner at which half of the binding sites on the other are occupied at equilibrium, for simple one-to-one binding.

Chain of CL11 (ribosomal protein L11 C-terminal domain, wild type) (P56210 59-133): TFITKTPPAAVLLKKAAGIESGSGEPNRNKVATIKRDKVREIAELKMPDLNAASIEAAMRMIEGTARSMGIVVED

B1: biotinylated 58rRNA (structured_RNA)
RNA: GCCAGGAUGUAGGCUUAGAAGCAGCCAUCAUUUAAAGAAAGCGUAAUAGCUCACUGGU
B1 registered a Kd of 2.4 nM.
